B1: MYO1C (protein, UniProt O00159 1-1063, looked up)
Unconventional myosin-Ic: MALQVELVPTGEIIRVVHPHRPCKLALGSDGVRVTMESALTARDRVGVQDFVLLENFTSEAAFIENLRRRFRENLIYTYIGPVLVSVNPYRDLQIYSRQHMERYRGVSFYEVPPHLFAVADTVYRALRTERRDQAVMISGESGAGKTEATKRLLQFYAETCPAPERGGAVRDRLLQSNPVLEAFGNAKTLRNDNSSRFGKYMDVQFDFKGAPVGGHILSYLLEKSRVVHQNHGERNFHIFYQLLEGGEEETLRRLGLERNPQSYLYLVKGQCAKVSSINDKSDWKVVRKALTVIDFTEDEVEDLLSIVASVLHLGNIHFAANEESNAQVTTENQLKYLTRLLSVEGSTLREALTHRKIIAKGEELLSPLNLEQAAYARDALAKAVYSRTFTWLVGKINRSLASKDVESPSWRSTTVLGLLDIYGFEVFQHNSFEQFCINYCNEKLQQLFIELTLKSEQEEYEAEGIAWEPVQYFNNKIICDLVEEKFKGIISILDEECLRPGEATDLTFLEKLEDTVKHHPHFLTHKLADQRTRKSLGRGEFRLLHYAGEVTYSVTGFLDKNNDLLFRNLKETMCSSKNPIMSQCFDRSELSDKKRPETVATQFKMSLLQLVEILQSKEPAYVRCIKPNDAKQPGRFDEVLIRHQVKYLGLLENLRVRRAGFAYRRKYEAFLQRYKSLCPETWPTWAGRPQDGVAVLVRHLGYKPEEYKMGRTKIFIRFPKTLFATEDALEVRRQSLATKIQAAWRGFHWRQKFLRVKRSAICIQSWWRGTLGRRKAAKRKWAAQTIRRLIRGFVLRHAPRCPENAFFLDHVRTSFLLNLRRQLPQNVLDTSWPTPPPALREASELLRELCIKNMVWKYCRSISPEWKQQLQQKAVASEIFKGKKDNYPQSVPRLFISTRLGTDEISPRVLQALGSEPIQYAVPVVKYDRKGYKPRSRQLLLTPNAVVIVEDAKVKQRIDYANLTGISVSSLSDSLFVLHVQRADNKQKGDVVLQSDHVIETLTKTALSANRVNSININQGSITFAGGPGRDGTIDFTPGSELLITKAKNGHLAVVAPRLNSR
B2: TUBA1C (protein, UniProt Q9BQE3 1-449, looked up)
Tubulin alpha-1C chain: MRECISIHVGQAGVQIGNACWELYCLEHGIQPDGQMPSDKTIGGGDDSFNTFFSETGAGKHVPRAVFVDLEPTVIDEVRTGTYRQLFHPEQLITGKEDAANNYARGHYTIGKEIIDLVLDRIRKLADQCTGLQGFLVFHSFGGGTGSGFTSLLMERLSVDYGKKSKLEFSIYPAPQVSTAVVEPYNSILTTHTTLEHSDCAFMVDNEAIYDICRRNLDIERPTYTNLNRLISQIVSSITASLRFDGALNVDLTEFQTNLVPYPRIHFPLATYAPVISAEKAYHEQLTVAEITNACFEPANQMVKCDPRHGKYMACCLLYRGDVVPKDVNAAIATIKTKRTIQFVDWCPTGFKVGINYQPPTVVPGGDLAKVQRAVCMLSNTTAVAEAWARLDHKFDLMYAKRAFVHWYVGEGMEEGEFSEAREDMAALEKDYEEVGADSADGEDEGEEY
B3: ATP5J2 (protein, UniProt P56134 2-94, looked up)
ATP synthase F(0) complex …: ASVGECPAPVPVKDKKLLEVKLGELPSWILMRDFSPSGIFGAFQRGYYRYYNKYINVKKGSISGITMVLACYVLFSYSFSYKHLKHERLRKYH
B4: IMMT (protein, UniProt Q16891 34-758, looked up)
MICOS complex subunit MIC60: STSGSSGLTTGKIAGAGLLFVGGGIGGTILYAKWDSHFRESVEKTIPYSDKLFEMVLGPAAYNVPLPKKSIQSGPLKISSVSEVMKESKQPASQLQKQKGDTPASATAPTEAAQIISAAGDTLSVPAPAVQPEESLKTDHPEIGEGKPTPALSEEASSSSIRERPPEEVAARLAQQEKQEQVKIESLAKSLEDALRQTASVTLQAIAAQNAAVQAVNAHSNILKAAMDNSEIAGEKKSAQWRTVEGALKERRKAVDEAADALLKAKEELEKMKSVIENAKKKEVAGAKPHITAAEGKLHNMIVDLDNVVKKVQAAQSEAKVVSQYHELVVQARDDFKRELDSITPEVLPGWKGMSVSDLADKLSTDDLNSLIAHAHRRIDQLNRELAEQKATEKQHITLALEKQKLEEKRAFDSAVAKALEHHRSEIQAEQDRKIEEVRDAMENEMRTQLRRQAAAHTDHLRDVLRVQEQELKSEFEQNLSEKLSEQELQFRRLSQEQVDNFTLDINTAYARLRGIEQAVQSHAVAEEEARKAHQLWLSVEALKYSMKTSSAETPTIPLGSAVEAIKANCSDNEFTQALTAAIPPESLTRGVYSEETLRARFYAVQKLARRVAMIDETRNSLYQYFLSYLQSLLLFPPQQLKPPPELCPEDINTFKLLSYASYCIEHGDLELAAKFVNQLKGESRRVAQDWLKEARMTLETKQIVEILTAYASAVGIGTTQVQPE
B5: SSBP1 (protein, UniProt Q04837 17-148, looked up)
Single-stranded DNA-binding …: ESETTTSLVLERSLNRVHLLGRVGQDPVLRQVEGKNPVTIFSLATNEMWRSGDSEVYQLGDVSQKTTWHRISVFRPGLRDVAYQYVKKGSRIYLEGKIDYGEYMDKNNVRRQATTIIADNIIFLSDQTKEKE
B6: MAP4K4 (protein, UniProt O95819 2-1239, looked up)
Mitogen-activated protein …: ANDSPAKSLVDIDLSSLRDPAGIFELVEVVGNGTYGQVYKGRHVKTGQLAAIKVMDVTEDEEEEIKLEINMLKKYSHHRNIATYYGAFIKKSPPGHDDQLWLVMEFCGAGSITDLVKNTKGNTLKEDWIAYISREILRGLAHLHIHHVIHRDIKGQNVLLTENAEVKLVDFGVSAQLDRTVGRRNTFIGTPYWMAPEVIACDENPDATYDYRSDLWSCGITAIEMAEGAPPLCDMHPMRALFLIPRNPPPRLKSKKWSKKFFSFIEGCLVKNYMQRPSTEQLLKHPFIRDQPNERQVRIQLKDHIDRTRKKRGEKDETEYEYSGSEEEEEEVPEQEGEPSSIVNVPGESTLRRDFLRLQQENKERSEALRRQQLLQEQQLREQEEYKRQLLAERQKRIEQQKEQRRRLEEQQRREREARRQQEREQRRREQEEKRRLEELERRRKEEEERRRAEEEKRRVEREQEYIRRQLEEEQRHLEVLQQQLLQEQAMLLECRWREMEEHRQAERLQRQLQQEQAYLLSLQHDHRRPHPQHSQQPPPPQQERSKPSFHAPEPKAHYEPADRAREVEDRFRKTNHSSPEAQSKQTGRVLEPPVPSRSESFSNGNSESVHPALQRPAEPQVPVRTTSRSPVLSRRDSPLQGSGQQNSQAGQRNSTSIEPRLLWERVEKLVPRPGSGSSSGSSNSGSQPGSHPGSQSGSGERFRVRSSSKSEGSPSQRLENAVKKPEDKKEVFRPLKPADLTALAKELRAVEDVRPPHKVTDYSSSSEESGTTDEEDDDVEQEGADESTSGPEDTRAASSLNLSNGETESVKTMIVHDDVESEPAMTPSKEGTLIVRQTQSASSTLQKHKSSSSFTPFIDPRLLQISPSSGTTVTSVVGFSCDGMRPEAIRQDPTRKGSVVNVNPTNTRPQSDTPEIRKYKKRFNSEILCAALWGVNLLVGTESGLMLLDRSGQGKVYPLINRRRFQQMDVLEGLNVLVTISGKKDKLRVYYLSWLRNKILHNDPEVEKKQGWTTVGDLEGCVHYKVVKYERIKFLVIALKSSVEVYAWAPKPYHKFMAFKSFGELVHKPLLVDLTVEEGQRLKVIYGSCAGFHAVDVDSGSVYDIYLPTHIQCSIKPHAIIILPNTDGMELLVCYEDEGVYVNTYGRITKDVVLQWGEMPTSVAYIRSNQTMGWGEKAIEIRSVETGHLDGVFMHKRAQRLKFLCERNDKVFFASVRSGGSSQVYFMTLGRTSLLSW

The subject of the first assay is GFP-14-3-3β. Description: GFP-14-3-3β co-IP with LC-MS/MS, untreated GFP-14-3-3β versus GFP control (14-3-3 interactome). It counts as binding, human. To be noted: UntrtedvsGFP, Perseus raw output, LFQ intensity difference.
On to B1, for which the Difference was -0.5566.

The same assay, now with this note: untreated vs GFP; LFQ intensities; 3 replicates each.
Take B2: the “Difference (log2), untreated vs GFP” value is given as 0.0777 log2.
Same read-out and setting: for B3 the value was -0.05352 log2.
With B4, the “Difference (log2), untreated vs GFP” value is recorded as 0.387 log2.
The same measure, in the same setting: as for B1, the figure is -0.5566 log2.
The same measure, in the same setting: as for B5, the figure is -1.1951 log2.
Still for that read-out and setting: as for B6, the figure is 0.6698 log2.

For another assay, the system named is GFP-14-3-3β and its binding proteins. Description: GFP-14-3-3β co-IP with LC-MS/MS label-free quantification, untreated versus PP1c-treated. The note with it: GFP-14-3-3β co-IP, PP1vsUntrted, Perseus raw output, LFQ intensity difference. More on the design: species or system human.
B1 displayed a Difference of 0.4615.

The assay is the same for the next values; noted with them: PP1 vs untreated; LFQ intensities; 3 replicates each.
On to B2, for which the “Difference (log2), PP1 vs untreated” value came out at 0.444 log2.
As for B3, the “Difference (log2), PP1 vs untreated” value was 0.4378 log2.
The same measure, in the same setting: for B4 the value was 0.4434 log2; for B1, 0.4615 log2; for B5, 0.4442 log2.
As to B6, the “Difference (log2), PP1 vs untreated” value stood at 0.4439 log2.

The record behind these values is publication PMC7367873, “Dissecting the sequence determinants for dephosphorylation by the catalytic subunits of phosphatases PP1 and PP2A” (Nature Communications, 2020).
